Source: patent US20150104466A1, “CYTOMEGALOVIRUS DISINTEGRIN-LIKE PEPTIDES” (priority 2013, published 2015)

Assays:
β3 integrin = molecular target: T1, β3 integrin (Homo sapiens, UniProt P05106); test: Integrin co-immunoprecipitation assay, Western blot for β3 integrin; format: binding; settings: human fibroblast lysates, nickel beads
T1 construct: endogenous in cells; host or cells: Normal Human Dermal Fibroblasts (NHDF), 1% TX-100 lysate
Method: (§1) A T-175 flask of NHDFs was grown to complete confluence, washed three times in MES buffer and lysed in 1 mL MES buffer+1% TX-100 (a detergent). Lysate was spun at 10,000 g for 10 minutes to remove cell debris. Cell lysate (350 μL) was then incubated with 20 μg gBDLD for 4 hours at 4° C. The lysate+gBDLD mixture was then incubated with 50 μL Ni beads overnight at 4° C. Nickel beads were then washed three times and protein eluted by boiling and then adding reducing SDS-PAGE buffer. Proteins were separated by SDS-PAGE and Western blotted for β1 integrin (Chemicon-1965) or β3 (Chemicon) as previously described.^48
(§2) To identify the cellular receptor for gBDLD we performed co-immunoprecipitation studies. Briefly, gBDLD was incubated with human fibroblast lysates and pulled down with nickel-conjugated agarose beads.
(§3) Because gBDLD contains a known β1 integrin binding motif, gBDLD bound to its cellular receptor was isolated by SDS-PAGE and then Western blotted for either β1 or β3 integrin. The resulting gels are shown in FIG. 10 (β1) and FIG. 11 (β3).

[1] = molecular target: Normal human dermal fibroblasts; test: Protein binding assay: gBDLD binding to human fibroblasts (His-tag ELISA)
Method: Normal human dermal fibroblasts were chilled to 4° C., washed three times with cold MES buffer and blocked with 1 mg/mL bovine serum albumin (BSA) for 30 minutes at 4° C. Unbound BSA was removed with cold MES washes (×4). The indicated amounts of gBDLD were added to each well for 90 minutes at 4° C. Cells were then washed three times with cold MES, twice with cold (phosphate-buffered saline (PBS) and fixed with 3% paraformaldehyde. An ELISA was then performed probing with anti-His rabbit polyclonal antibody (Santa Cruz Biotechnology, Santa Cruz, Calif.) and anti-rabbit HRP (Pierce). Absorbance was measured at 405 nm.
FIG. 7 is a graph depicting the results of a gBDLD binding assay (performed as described previously). Here, binding was measured by absorbance at 405 nm. […] To generate the data, human fibroblasts were incubated with gBDLD for the indicated times at 4° C. Cells were then washed, fixed and an ELISA was performed probing for the gBDLD […] his-tag. […]
FIG. 8 is a graph depicting gBDLD binding to human fibroblasts. As is readily apparent from FIG. 8, this binding is dose-dependent and saturable. […] After three IVIES washes and two PBS washes, cells were fixed in 3% paraformaldehyde and a His-tag ELISA was performed to quantitate gBDLD bound to cells.

NHDF cells = test: Cytoskeletal rearrangement in NHDF cells (actin staining with phalloidin); format: cell-based, human; settings: compared to buffer alone
Text: gBDLD Triggers Cytoskeletal Rearrangements: β1 integrins are known inducers of broad signal transduction events. […] To test the role of gBDLD in mediating signaling events, we stimulated NHDF cells with buffer alone, gBDLD, or a known cytoskeletal reorganizer (EGF), followed by actin staining with phalloidin.

[2] = Solubility of gBDLD in MES buffer; format: physicochemical; settings: 55 mM MES, pH 5.5, 300 mM NaCl
Method: DNA sequence corresponding to amino acids 57-146 of HCMV AD169 glycoprotein B disintegrin-like domain (“gBDLD”) was cloned into the bacterial expression vector pET-28a containing an N-terminal His-Tag with thrombin cleavage site and kanamycin resistance. (Commercially available from Novagen, San Diego, Calif.) gBDLD production was induced by the addition of 1 mM isopropyl-βD-thiogalactopyranoside (IPTG). E. coli Tuner strain containing pET-28a:gBDLD was grown at 37° C. in Luria-Bertani medium containing kanamycin (50 μg/mL) to an optical density at 600 nm of approximately 0.6. IPTG (1 mM) was added and the plates were incubated continuously for 4 h at 37° C. Cells were harvested by centrifugation at 4000 r/min for 10 min and pellets were resuspended in 1% Triton X-100/Ni-NTA buffer (300 mM NaCl/50 mM Tris-HCL pH 7.9) and lysed by 3×60 s bursts of sonication. The lysate was centrifuged at 15,000 r/min for 15 minutes at 4° C. The 8M urea/Ni-NTA fraction was then poured into a chromatography column containing nickel-nitriloacetic acid agarose (Ni-NTA) beads at 4° C. and allowed to flow through. […] Fractions containing protein were determined by measuring the absorbance of each fraction at 214 nm. Fractions that corresponded to absorption peaks were analyzed by sodium dodecyl sulfate polyacrylamide electrophoresis (SDS-PAGE) to determine the size of the protein. […]

diI-labeled HCMV = format: cell-based, Human cytomegalovirus; settings: gBDLD or BSA 320 μg/mL, soluble heparin 50 μg/mL; 24 hours post-infection
β1 integrin = molecular target: T2, β1 integrin (Homo sapiens, UniProt P05556); test: Integrin co-immunoprecipitation assay, Western blot for β1 integrin; format: binding; settings: human fibroblast lysates, nickel beads
T2 construct: endogenous in cells; host or cells: Normal Human Dermal Fibroblasts (NHDF), 1% TX-100 lysate
Method: as §1, §2, §3

T1 sequence (P05106 27-788): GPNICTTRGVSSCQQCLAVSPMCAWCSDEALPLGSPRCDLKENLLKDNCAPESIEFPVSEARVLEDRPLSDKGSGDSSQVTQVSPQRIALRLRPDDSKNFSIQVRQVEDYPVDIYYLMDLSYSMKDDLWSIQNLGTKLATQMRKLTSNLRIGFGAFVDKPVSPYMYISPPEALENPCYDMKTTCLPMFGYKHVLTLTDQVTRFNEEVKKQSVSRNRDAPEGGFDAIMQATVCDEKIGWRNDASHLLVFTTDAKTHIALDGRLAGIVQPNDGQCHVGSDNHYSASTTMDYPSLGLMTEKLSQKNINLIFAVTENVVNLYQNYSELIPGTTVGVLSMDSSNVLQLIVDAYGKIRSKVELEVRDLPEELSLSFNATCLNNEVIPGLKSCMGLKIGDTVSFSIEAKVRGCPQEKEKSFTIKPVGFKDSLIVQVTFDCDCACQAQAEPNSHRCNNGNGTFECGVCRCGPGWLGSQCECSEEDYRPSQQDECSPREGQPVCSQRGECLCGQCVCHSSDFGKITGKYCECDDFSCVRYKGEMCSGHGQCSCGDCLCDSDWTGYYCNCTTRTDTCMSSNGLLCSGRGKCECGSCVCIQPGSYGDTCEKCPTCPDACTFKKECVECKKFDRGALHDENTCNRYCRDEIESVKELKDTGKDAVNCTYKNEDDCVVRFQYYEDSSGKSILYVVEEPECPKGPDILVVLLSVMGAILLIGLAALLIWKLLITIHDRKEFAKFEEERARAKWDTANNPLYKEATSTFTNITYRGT
T1 sequence (P06756 31-889 partner limits assumed): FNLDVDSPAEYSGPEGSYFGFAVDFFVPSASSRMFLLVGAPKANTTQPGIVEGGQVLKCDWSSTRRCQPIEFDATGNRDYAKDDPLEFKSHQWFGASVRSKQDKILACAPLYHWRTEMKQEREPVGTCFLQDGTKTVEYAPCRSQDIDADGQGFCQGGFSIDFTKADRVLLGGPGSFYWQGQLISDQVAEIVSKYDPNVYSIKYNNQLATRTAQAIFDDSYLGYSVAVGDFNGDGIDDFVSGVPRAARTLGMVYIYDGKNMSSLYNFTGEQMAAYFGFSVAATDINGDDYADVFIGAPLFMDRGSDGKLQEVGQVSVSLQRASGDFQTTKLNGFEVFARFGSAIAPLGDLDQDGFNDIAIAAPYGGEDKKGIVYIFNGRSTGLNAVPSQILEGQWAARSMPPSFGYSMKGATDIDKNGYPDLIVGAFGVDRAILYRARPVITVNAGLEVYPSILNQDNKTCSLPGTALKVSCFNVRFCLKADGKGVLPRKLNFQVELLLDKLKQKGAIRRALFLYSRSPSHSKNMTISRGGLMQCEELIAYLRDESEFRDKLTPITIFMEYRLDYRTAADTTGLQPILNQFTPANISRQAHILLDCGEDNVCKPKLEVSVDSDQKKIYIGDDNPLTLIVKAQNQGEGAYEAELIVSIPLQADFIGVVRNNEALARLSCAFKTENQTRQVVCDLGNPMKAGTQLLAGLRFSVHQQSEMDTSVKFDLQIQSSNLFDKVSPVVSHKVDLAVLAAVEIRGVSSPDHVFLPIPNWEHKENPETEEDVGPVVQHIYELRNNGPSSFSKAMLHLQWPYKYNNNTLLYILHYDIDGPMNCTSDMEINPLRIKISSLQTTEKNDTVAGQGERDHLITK
T1 sequence (P06756 891-1048 partner limits assumed): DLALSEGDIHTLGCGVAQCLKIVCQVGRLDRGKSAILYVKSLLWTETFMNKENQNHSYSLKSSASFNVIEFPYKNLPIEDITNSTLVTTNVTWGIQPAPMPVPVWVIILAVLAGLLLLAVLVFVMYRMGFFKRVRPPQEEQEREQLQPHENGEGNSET
T2 sequence (P05556 21-798): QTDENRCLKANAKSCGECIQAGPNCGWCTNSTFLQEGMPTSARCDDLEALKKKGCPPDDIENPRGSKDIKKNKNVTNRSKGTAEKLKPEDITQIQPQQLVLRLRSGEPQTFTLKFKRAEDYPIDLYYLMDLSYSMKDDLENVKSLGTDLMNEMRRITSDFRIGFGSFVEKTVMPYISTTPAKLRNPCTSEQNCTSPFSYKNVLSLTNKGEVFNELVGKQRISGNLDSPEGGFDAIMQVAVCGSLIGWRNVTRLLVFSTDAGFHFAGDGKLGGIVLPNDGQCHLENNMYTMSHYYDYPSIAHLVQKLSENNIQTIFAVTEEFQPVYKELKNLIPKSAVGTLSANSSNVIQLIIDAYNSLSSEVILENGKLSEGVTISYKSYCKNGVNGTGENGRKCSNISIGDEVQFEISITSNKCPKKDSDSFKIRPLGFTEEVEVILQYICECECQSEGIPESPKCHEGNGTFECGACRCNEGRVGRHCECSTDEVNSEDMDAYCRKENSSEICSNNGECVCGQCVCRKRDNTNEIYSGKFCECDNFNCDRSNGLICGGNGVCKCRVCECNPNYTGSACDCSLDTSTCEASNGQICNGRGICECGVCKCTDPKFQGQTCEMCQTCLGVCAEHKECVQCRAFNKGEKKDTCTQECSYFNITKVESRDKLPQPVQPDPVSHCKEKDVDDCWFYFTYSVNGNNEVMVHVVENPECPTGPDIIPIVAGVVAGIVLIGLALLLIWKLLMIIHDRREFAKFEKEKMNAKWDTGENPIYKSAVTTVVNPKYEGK

B1: gBDLD: amino acids 57-146 of HCMV AD169 glycoprotein B disintegrin-like domain, His-tagged, expressed in E. coli (protein)
chain: VTSSEAVSHRANETIYNTTLKYGDVVGVNTTKYPYRVCSMAQGTDLIRFERNIICTSMKPINEDLDEGIMVVYKRNIVAHTFKVRVYQKV
modifications: left off: small tags and cut ends
notes: amino acids 57-146 of HCMV AD169 glycoprotein B disintegrin-like domain, His-tagged, expressed in E. coli
interaction with β3 integrin (pull down) (β3 integrin): does not interact with β3 integrins | kinetics of gBDLD binding to human fibroblasts ([1]; 4° C., absorbance at 405 nm): rapid kinetics | concentration at which binding to fibroblast monolayers reached saturation ([1]; 60 minutes, after BSA blocking): 12.5 µg/mL | reorganization of the cytoskeleton (NHDF cells): triggered a dramatic reorganization of the cytoskeleton | Solubility [2]: approximately 1 mg/mL | block of HCMV fusion and gene expression (diI-labeled HCMV): complete block of HCMV fusion and gene expression | interaction with β1 integrin (pull down) (β1 integrin): interacts with β1 integrins
